Measurements from US7754855.

Biological target: rabbit GH receptor (rabbit) (UniProt P19941)
Assay: cell-based or functional assay

Chain of UniProt P19941 (P19941 19-638): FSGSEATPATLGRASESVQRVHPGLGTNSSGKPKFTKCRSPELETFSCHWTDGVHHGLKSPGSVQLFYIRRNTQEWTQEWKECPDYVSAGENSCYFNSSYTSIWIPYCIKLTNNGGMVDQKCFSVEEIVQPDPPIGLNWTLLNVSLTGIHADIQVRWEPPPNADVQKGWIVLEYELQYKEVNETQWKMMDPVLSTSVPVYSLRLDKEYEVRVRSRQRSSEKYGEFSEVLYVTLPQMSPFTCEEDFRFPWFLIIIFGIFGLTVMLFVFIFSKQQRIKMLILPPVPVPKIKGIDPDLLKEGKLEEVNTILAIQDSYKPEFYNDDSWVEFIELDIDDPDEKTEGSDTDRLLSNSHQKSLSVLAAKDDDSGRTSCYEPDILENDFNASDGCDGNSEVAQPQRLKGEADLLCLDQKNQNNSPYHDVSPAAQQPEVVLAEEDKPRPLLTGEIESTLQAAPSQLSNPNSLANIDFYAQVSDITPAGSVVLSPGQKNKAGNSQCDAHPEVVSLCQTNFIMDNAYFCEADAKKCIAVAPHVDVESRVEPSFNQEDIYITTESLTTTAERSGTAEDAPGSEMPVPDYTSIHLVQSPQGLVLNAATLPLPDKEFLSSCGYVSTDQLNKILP

human pituitary GH standard (from UniProt P01241 27-217) (ligand)
Mean EC50 (nM), proliferation of GH-R4 cells: 0.036 nM | Mean EC50 (ng/ml), proliferation of GH-R4 cells: 0.8 ng/mL
